Results: US20140087995A1 (published 2014)
One block for each binder: values may come before it. Numbered stars: 1 amine (or outer) side, 2 acyl side, 3 side chain; on linkers, the order of the positions; unused ones are H or OH. Bridge positions count the residues as written; N and C are the ends. * marks the point of attachment. C20 diacid = O=C(O)CCCCCCCCCCCCCCCCCCC(=O)*; γGlu = O=C(O)[C@H](CCC(=O)[*:2])N[*:1]; AEEA = NCCOCCOCC(=O)O

Assays:
[1] = biological target: T1, human amylin 3(a) receptor (human calcitonin receptor plus RAMP-3) (human, UniProt P30988 25-474; O60896 24-148, limits assumed); assay: SPA competition binding, displacement of 125I-rat amylin from membranes of Amylin 3(a)/CRE-luc BHK cells (Assay V)
T1 construct: whole, on cells; Whole cells in the luciferase assay (Assay II a); also called hAmylin-R; human amylin receptor
T1 sequence (looked up) 1: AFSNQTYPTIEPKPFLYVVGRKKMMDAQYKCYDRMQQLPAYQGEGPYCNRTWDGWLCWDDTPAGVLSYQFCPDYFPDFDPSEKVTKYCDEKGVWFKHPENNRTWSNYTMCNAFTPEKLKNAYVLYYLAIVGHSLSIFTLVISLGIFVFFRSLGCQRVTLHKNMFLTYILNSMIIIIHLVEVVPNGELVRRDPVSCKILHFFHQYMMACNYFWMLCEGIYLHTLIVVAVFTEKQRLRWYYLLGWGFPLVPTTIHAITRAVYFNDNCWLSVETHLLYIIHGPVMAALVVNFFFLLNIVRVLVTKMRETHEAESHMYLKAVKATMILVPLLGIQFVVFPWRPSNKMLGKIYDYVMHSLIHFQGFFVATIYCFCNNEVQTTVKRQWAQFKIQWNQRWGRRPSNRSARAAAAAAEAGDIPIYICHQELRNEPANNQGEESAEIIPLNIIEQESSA
T1 sequence (looked up) 2: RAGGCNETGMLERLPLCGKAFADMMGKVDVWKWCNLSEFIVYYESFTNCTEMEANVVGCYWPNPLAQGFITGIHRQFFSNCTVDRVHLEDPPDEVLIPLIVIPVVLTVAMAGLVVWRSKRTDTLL
Experimental: The binding assay was performed using scintillation proximity assay (SPA) beads (RPNQ0001) from PerkinElmer and cell membranes from the Amylin 3(a)/CRE-luc cells (as described in Assay (II)) were used. Membranes were prepared in the following way; the cells were rinsed with PBS and incubated with Versene for approximately 5 min before harvesting. The cells were flushed with PBS and the cell-suspension was centrifuged for 5 min at 1000 rpm. Cells were homogenized (ultrathurrax) in a buffer containing 20 mM Na-HEPES and 10 mM EDTA (pH 7.4) and centrifuged at 20.000 rpm for 15 min. The resulting pellet was resuspended, homogenized and centrifuged (20.000 rpm, 15 min) in a buffer containing 20 mM Na-HEPES and 0.1 mM EDTA (pH 7.4, buffer 2). The resulting pellet was resuspended in buffer 2 and protein concentration was measured (BCA protein Assay, Pierce). The homogenate was kept cold during the whole procedure. The membranes were kept at −80° C. until use. The assay was performed in a 384 well Optiplate (PerkinElmer) in a total volume of 40 ul. Membranes were mixed with SPA beads. Final concentration of membranes 35 ng/μL final and SPA beads was 0.05 mg/well. Test-compounds were dissolved in DMSO and further diluted in assay buffer (50 mM Hepes, pH 7.4, 1 mM CaCl2, 5 mM MgCl₂, 0.1% OA and 0.02% Tween20). […] The final mixture was incubated with shaking at 400 rpm for 120 min at 25° C. prior to centrifugation (1500 rpm, 10 min). Samples were analyzed on TopCounter™ (Packard). The IC₅₀ was calculated using (one site binding competition analysis) GraphPad Prism5 as a measure of receptor affinity.

[2] = biological target: T2, human calcitonin receptor (human, UniProt P30988 25-474); assay: cell-based or functional assay
T2 sequence (looked up): T1 sequence (looked up) 1

[3] = biological target: T1, human amylin 3(a) receptor (human …); assay: cell-based or functional assay

- IC50 [1]: 0.143 nM
- hCTR funct. EC50 [2]: 1290 pM
- Ratio hCT/hAmylin funct. [3]: 7.4
- hAmylin-R funct. EC50 [3]: 175 pM
B1: N^α1-[(4S)-4-carboxy-4-(19-carboxynonadecanoylamino)butanoyl]-[Glu14,Arg17,Pro21,Pro27]-h-amylin (peptide)
peptide: KCNTATCATQRLAEFLRHSSPNFGAIPSSTNVGSNTY
modifications: C20 diacid-gGlu on the alpha amino group of the N-terminal residue (position 1); disulfide bridge Cys2-Cys7; C-terminal amide
notes: also called compound 9

- IC50 [1]: 0.217 nM
- hCTR funct. EC50 [2]: 285 pM
- Ratio hCT/hAmylin funct. [3]: 3.6
- hAmylin-R funct. EC50 [3]: 80 pM
B2: N^α1-[2-[2-[2-[[2-[2-[2-[[(4S)-4-carboxy-4-(19-carboxynonadecanoylamino)butanoyl]amino]ethoxy]ethoxy]acetyl]amino]ethoxy]ethoxy]acetyl]-[Glu14,Arg17,Pro21,Pro27 … (peptide)
peptide: {C20 diacid-γGlu-AEEA-AEEA}-KCNTATCATQRLAEFLRHSSPNFGAIPSSTNVGSNTP-NH2
modifications: disulfide 2-7
SMILES: CC[C@H](C)[C@H](NC(=O)[C@H](C)NC(=O)CNC(=O)[C@H](Cc1ccccc1)NC(=O)[C@H](CC(N)=O)NC(=O)[C@@H]1CCCN1C(=O)[C@H](CO)NC(=O)[C@H](CO)NC(=O)[C@H](Cc1c[nH]cn1)NC(=O)[C@H](CCCNC(=N)N)NC(=O)[C@H](CC(C)C)NC(=O)[C@H](Cc1ccccc1)NC(=O)[C@H](CCC(=O)O)NC(=O)[C@H](C)NC(=O)[C@H](CC(C)C)NC(=O)[C@H](CCCNC(=N)N)NC(=O)[C@H](CCC(N)=O)NC(=O)[C@@H](NC(=O)[C@H](C)NC(=O)[C@@H]1CSSC[C@H](NC(=O)[C@H](CCCCN)NC(=O)COCCOCCNC(=O)COCCOCCNC(=O)CC[C@H](NC(=O)CCCCCCCCCCCCCCCCCCC(=O)O)C(=O)O)C(=O)N[C@@H](CC(N)=O)C(=O)N[C@@H]([C@@H](C)O)C(=O)N[C@@H](C)C(=O)N[C@@H]([C@@H](C)O)C(=O)N1)[C@@H](C)O)C(=O)N1CCC[C@H]1C(=O)N[C@@H](CO)C(=O)N[C@@H](CO)C(=O)N[C@H](C(=O)N[C@@H](CC(N)=O)C(=O)N[C@H](C(=O)NCC(=O)N[C@@H](CO)C(=O)N[C@@H](CC(N)=O)C(=O)N[C@H](C(=O)N1CCC[C@H]1C(N)=O)[C@@H](C)O)C(C)C)[C@@H](C)O
notes: also called compound 20

- IC50 [1]: 0.321 nM
- hCTR funct. EC50 [2]: 70 pM
- Ratio hCT/hAmylin funct. [3]: 1.2
- hAmylin-R funct. EC50 [3]: 60 pM
B3: N^α1-[(4S)-4-carboxy-4-(19-carboxynonadecanoylamino)butanoyl]-[Glu14,Arg17,Pro21,Pro25,Pro28,Pro29,Pro37]-h-amylin (peptide)
peptide: {C20 diacid-γGlu}-KCNTATCATQRLAEFLRHSSPNFGPILPPTNVGSNTP-NH2
modifications: disulfide 2-7
SMILES: CC[C@H](C)[C@H](NC(=O)[C@@H]1CCCN1C(=O)CNC(=O)[C@H](Cc1ccccc1)NC(=O)[C@H](CC(N)=O)NC(=O)[C@@H]1CCCN1C(=O)[C@H](CO)NC(=O)[C@H](CO)NC(=O)[C@H](Cc1c[nH]cn1)NC(=O)[C@H](CCCNC(=N)N)NC(=O)[C@H](CC(C)C)NC(=O)[C@H](Cc1ccccc1)NC(=O)[C@H](CCC(=O)O)NC(=O)[C@H](C)NC(=O)[C@H](CC(C)C)NC(=O)[C@H](CCCNC(=N)N)NC(=O)[C@H](CCC(N)=O)NC(=O)[C@@H](NC(=O)[C@H](C)NC(=O)[C@@H]1CSSC[C@H](NC(=O)[C@H](CCCCN)NC(=O)CC[C@H](NC(=O)CCCCCCCCCCCCCCCCCCC(=O)O)C(=O)O)C(=O)N[C@@H](CC(N)=O)C(=O)N[C@@H]([C@@H](C)O)C(=O)N[C@@H](C)C(=O)N[C@@H]([C@@H](C)O)C(=O)N1)[C@@H](C)O)C(=O)N[C@@H](CC(C)C)C(=O)N1CCC[C@H]1C(=O)N1CCC[C@H]1C(=O)N[C@H](C(=O)N[C@@H](CC(N)=O)C(=O)N[C@H](C(=O)NCC(=O)N[C@@H](CO)C(=O)N[C@@H](CC(N)=O)C(=O)N[C@H](C(=O)N1CCC[C@H]1C(N)=O)[C@@H](C)O)C(C)C)[C@@H](C)O
notes: also called compound 4
